B1: Avian orthoreovirus segment S1 (nucleic acid, listed as Avian orthoreovirus)
DNA: GCTTTTTCAATCCCTTGTGTCGATGTTCCCGTATGTCATCTGGTTCATGTAACGGTGCAACTTCTATTTTTGGTAACGTTCACTGTCAGGCAGCGCAAAACTCGGCGGGTGGTGATCTTCAAGCGACTTCCTCTCTTGTTGCTTATTGGCCCTACTTGGCTGCGGGCGGTGGTCTGCTCGTTGTTATTATTATAATTGTTGGCGCTGTTTGTTGTTGCAAGGCTAAGGTTAAAGCGGACGCAGCCCGAAACGTTTTCTACCGAGAGCTGTTCGCACTTAATTCGGGTAAAAGTGATGCAGGACCTCCGATTTACCAGGTTTAGTGTACGACGATTTGAGTTTTCACCTTTCGTCTTAGAGGAGTGCACTACTCCATCTTTCACGACTATAACTAATACCGATCCGGCTCTCTACTTTAACATTGAGTTTCCGTCAAGTCATCGTCTCTCCCCCTTCATTCCAGAACTGTTGTCTCAGCCTTGTACCGTTCACGTTTCATTGATTCGGAGATTCGCTCTCTGTGCAACCTTATCTAGTATTTGTGAATACGACTGTGCGCTACTGCCATCCATCAACGCTATTACGACGATCCCTACACCAGGTGCGTCATCATCTCTGATTGTTCATTGGG
B2: Caprine Kobuvirus d50 (nucleic acid, listed as Kobuvirus sp.)
DNA: CCGGGCCACCGATACTTCCCTTCACTCCTTCGGGACTGTTGGGGAGGAACACAACAGGGCTCCCCTGTTTTCCCATTCCTTCCCCCTTTTCCCAACCCCAACCGCCGTATCTGGTGGCGGCAAGACACACGGGTCTTTCCCTCTAAAGCACAATTGTGTGTGTGTCCCAGGTCCTCCTGCGTACGGTGCGGGAGTGCTCCCACCCAACTGTTGTAAGCCTGTCCAACGCGTCGTCCTGGCAAGACTATGACGTCGCATGTTCCGCTGCGGATGCCGACCGGGTAACCGGTTCCCCAGTGTGTGTAGTGCGATCTTCCAGGTCCTCCTGGTTGGCGTTGTCCAGAAACTGCTTCAGGTAAGTGGGGTGTGCCCAATCCCTACAAAGGTTGATTCTTTCACCACCTTAGGAATGCTCCGGAGGTACCCCAGCAACAGCTGGGATCTGACCGGAGGCTAATTGTCTACGGGTGGTGTTTCCTTTTTCTTTTCACACAACTCTACTGCTGACAACTCACTGACTATCCACTTGCTCTCTTGTGCCTTTCTGCTCTGGTTCAAGTTCCTTGATTGTTTTTGACTGCTTTTCACTGCTTTTCTTCTCACAATCCTTGCTCAGTTCAAAGTC
B3: Caprine Kobuvirus d10 (nucleic acid, listed as Kobuvirus sp.)
DNA: GGGGCCTCGGCCCCCTCACCCTCTTTTCCGGTGGCCACGCCCGGGCCACCGATACTTCCCTTCACTCCTTCGGGACTGTTGGGGAGGAACACAACAGGGCTCCCCTGTTTTCCCATTCCTTCCCCCTTTTCCCAACCCCAACCGCCGTATCTGGTGGCGGCAAGACACACGGGTCTTTCCCTCTAAAGCACAATTGTGTGTGTGTCCCAGGTCCTCCTGCGTACGGTGCGGGAGTGCTCCCACCCAACTGTTGTAAGCCTGTCCAACGCGTCGTCCTGGCAAGACTATGACGTCGCATGTTCCGCTGCGGATGCCGACCGGGTAACCGGTTCCCCAGTGTGTGTAGTGCGATCTTCCAGGTCCTCCTGGTTGGCGTTGTCCAGAAACTGCTTCAGGTAAGTGGGGTGTGCCCAATCCCTACAAAGGTTGATTCTTTCACCACCTTAGGAATGCTCCGGAGGTACCCCAGCAACAGCTGGGATCTGACCGGAGGCTAATTGTCTACGGGTGGTGTTTCCTTTTTCTTTTCACACAACTCTACTGCTGACAACTCACTGACTATCCACTTGCTCTCTTGTGCCTTTCTGCTCTGGTTCAAGTTCCTTGATTGTTTTTGACTGCTTTTCACTGCTTTTCTTCTCACAATCCTTGCTCAGTTCAAAGTC
B4: Aichivirus A FSS693 (nucleic acid)
DNA: CACCCATACACCCCCACCCCCTTTTCTGTAACTCAAGTATGTGTGCTCGTAATCTTGACTCCCACGGAATGGATCGATCCGCTGGAGAACAAACTGCTAGATCCACATCCTCCCTCCCCTTGGGAGGACCTCGGTCCTCCCACATCCTCCCTCCAGCCTGACGTATCACAGGCTGTGTGAAGCCCCCGCGAAAGCTGCTCACGTGGCAATTGTGGGTCCCCCCTTCATCAAGACACCAGGTCTTTCCTCCTTAAGGCTAGCCCCGATGTGTGAATTCACATTGGGCAACTAGTGGTGTCACTGTGCGCTCCCAATCTCGGCCGCGGAGTGCTGTTCCCCAAGCCAAACCCCTGGCCCTTCACTATGTGCCTGGCAAGCATATCTGAGAAGGTGTTCCGCTGTGGCTGCCAGCCTGGTAACAGGTGCCCCAGTGTGCGTAACCTTCTTCCGTCTCCGGACGGTAGTGATTGGTTAAGATTTGGTGTAAGGTTCATGTGCCAACGCCCTGTGCGGGATGAAACCTCTACTGCCCTAGGAATGCCAGGCAGGTACCCCACCTTCGGGTGGGATCTGAGCCTGGGCTAATTGTCTACGGGTAGTTTCATTTCCAATTCTTTTATGCTGGAGTC
modifications: Aichivirus A
B5: Caprine Kobuvirus d20 (nucleic acid, listed as Kobuvirus sp.)
DNA: CCCCCTCACCCTCTTTTCCGGTGGCCACGCCCGGGCCACCGATACTTCCCTTCACTCCTTCGGGACTGTTGGGGAGGAACACAACAGGGCTCCCCTGTTTTCCCATTCCTTCCCCCTTTTCCCAACCCCAACCGCCGTATCTGGTGGCGGCAAGACACACGGGTCTTTCCCTCTAAAGCACAATTGTGTGTGTGTCCCAGGTCCTCCTGCGTACGGTGCGGGAGTGCTCCCACCCAACTGTTGTAAGCCTGTCCAACGCGTCGTCCTGGCAAGACTATGACGTCGCATGTTCCGCTGCGGATGCCGACCGGGTAACCGGTTCCCCAGTGTGTGTAGTGCGATCTTCCAGGTCCTCCTGGTTGGCGTTGTCCAGAAACTGCTTCAGGTAAGTGGGGTGTGCCCAATCCCTACAAAGGTTGATTCTTTCACCACCTTAGGAATGCTCCGGAGGTACCCCAGCAACAGCTGGGATCTGACCGGAGGCTAATTGTCTACGGGTGGTGTTTCCTTTTTCTTTTCACACAACTCTACTGCTGACAACTCACTGACTATCCACTTGCTCTCTTGTGCCTTTCTGCTCTGGTTCAAGTTCCTTGATTGTTTTTGACTGCTTTTCACTGCTTTTCTTCTCACAATCCTTGCTCAGTTCAAAGTC
B6: Caprine Kobuvirus d40 (nucleic acid, listed as Kobuvirus sp.)
DNA: GTGGCCACGCCCGGGCCACCGATACTTCCCTTCACTCCTTCGGGACTGTTGGGGAGGAACACAACAGGGCTCCCCTGTTTTCCCATTCCTTCCCCCTTTTCCCAACCCCAACCGCCGTATCTGGTGGCGGCAAGACACACGGGTCTTTCCCTCTAAAGCACAATTGTGTGTGTGTCCCAGGTCCTCCTGCGTACGGTGCGGGAGTGCTCCCACCCAACTGTTGTAAGCCTGTCCAACGCGTCGTCCTGGCAAGACTATGACGTCGCATGTTCCGCTGCGGATGCCGACCGGGTAACCGGTTCCCCAGTGTGTGTAGTGCGATCTTCCAGGTCCTCCTGGTTGGCGTTGTCCAGAAACTGCTTCAGGTAAGTGGGGTGTGCCCAATCCCTACAAAGGTTGATTCTTTCACCACCTTAGGAATGCTCCGGAGGTACCCCAGCAACAGCTGGGATCTGACCGGAGGCTAATTGTCTACGGGTGGTGTTTCCTTTTTCTTTTCACACAACTCTACTGCTGACAACTCACTGACTATCCACTTGCTCTCTTGTGCCTTTCTGCTCTGGTTCAAGTTCCTTGATTGTTTTTGACTGCTTTTCACTGCTTTTCTTCTCACAATCCTTGCTCAGTTCAAAGTC
B7: Picornavirales sp. isolate RtMruf-PicoV (nucleic acid)
DNA: TTTGCTCAGCGTAACTTCTCCGGGTTACGTGGAGACCAAAAGGCTACGGAGACTCGGGCTACGGCCCTGGAGCACCTAGGTGCTCCTAAAGACGTTAGAAGTTGTACAAACTCGCCCAATAGGGCCCCCCAACCAGGGGGGTAGCGGGCAAGCACTTCTGTTTCCCCGGTATGATCTCATAGGCTGTACCCACGGCTGAAAGAGAGATTATCGTTACCCGCCTCACTACTTCGAGAAGCCCAGTAATGGTTCATGAAGTTGATCTCGTTGACCCGGTGTTTCCCCCACACCAGAAACCTGTGATGGGGGTGGTCATCCCGGTCATGGCGACATGACGGACCTCCCCGCGCCGGCACAGGGCCTCTTCGGAGGACGAGTGACATGGATTCAACCGTGAAGAGCCTATTGAGCTAGTGTTGATTCCTCCGCCCCCGTGAATGCGGCTAATCCCAACTCCGGAGCAGGCGGGCCCAAACCAGGGTCTGGCCTGTCGTAACGCGAAAGTCTGGAGCGGAACCGACTACTTTCGGGAAGGCGTGTTTCCTTTTGTTCCTTTTATCAAGTTTTATGGTGACAACTCCTGGTAGACGTTTTATTGCGTTTATTGAGAGATTTCCAACAATTGAACAGACTAGAACCACTTGTTTTATCAAACCCTCACAGAATAAGATAACA
B8: Caprine Kobuvirus d30 (nucleic acid, listed as Kobuvirus sp.)
DNA: CTCTTTTCCGGTGGCCACGCCCGGGCCACCGATACTTCCCTTCACTCCTTCGGGACTGTTGGGGAGGAACACAACAGGGCTCCCCTGTTTTCCCATTCCTTCCCCCTTTTCCCAACCCCAACCGCCGTATCTGGTGGCGGCAAGACACACGGGTCTTTCCCTCTAAAGCACAATTGTGTGTGTGTCCCAGGTCCTCCTGCGTACGGTGCGGGAGTGCTCCCACCCAACTGTTGTAAGCCTGTCCAACGCGTCGTCCTGGCAAGACTATGACGTCGCATGTTCCGCTGCGGATGCCGACCGGGTAACCGGTTCCCCAGTGTGTGTAGTGCGATCTTCCAGGTCCTCCTGGTTGGCGTTGTCCAGAAACTGCTTCAGGTAAGTGGGGTGTGCCCAATCCCTACAAAGGTTGATTCTTTCACCACCTTAGGAATGCTCCGGAGGTACCCCAGCAACAGCTGGGATCTGACCGGAGGCTAATTGTCTACGGGTGGTGTTTCCTTTTTCTTTTCACACAACTCTACTGCTGACAACTCACTGACTATCCACTTGCTCTCTTGTGCCTTTCTGCTCTGGTTCAAGTTCCTTGATTGTTTTTGACTGCTTTTCACTGCTTTTCTTCTCACAATCCTTGCTCAGTTCAAAGTC

The molecules below were run on HEK293 cells. Settings: luminescence from secreted Gluc in supernatant 24 hours after transfection of HEK293 cells; circular RNA encoding Gluc with the named IRES (UTR truncated to 675 nt).
Type: cell-based, human

**Q.** How did the Expression turn out when B1 was run?
**A.** 4.37E+05

**Q.** For B2, which Expression is on record?
**A.** 9.65E+07

**Q.** How did the Expression turn out when B3 was run?
**A.** 2.20E+08

**Q.** B4 was tested. Which Expression did it give?
**A.** 6.25E+07

**Q.** With B5 as the molecule, how does the Expression read?
**A.** 2.00E+08

**Q.** Which Expression does the source give for B6 here?
**A.** 2.15E+08

**Q.** B7 was tested. Which Expression did it give?
**A.** 2.26E+08

**Q.** For B8, which Expression is on record?
**A.** 1.87E+08
